Where a chain is given by its changes, count along the chain named. In names and notes the source's numbering stands.
B1: Ang2 protein having FLAG sequences tagged at its N-terminal (FLAG-Ang2), wild type (ligand)
chain: DYKDDDDKYNNFRKSMDSIGKKQYQVQHGSCSYTFLLPEMDNCRSSSSPYVSNAVQRDAPLEYDDSVQRLQVLENIMENNTQWLMKLENYIQDNMKKEMVEIQQNAVQNQTAVMIEIGTNLLNQTAEQTRKLTDVEAQVLNQTTRLELQLLEHSLSTNKLEKQILDQTSEINKLQDKNSFLEKKVLAMEDKHIIQLQSIKEEKDQLQVLVSKQNSIIEELEKKIVTATVNNSVLQKQQHDLMETVNNLLTMMSTSNSAKDPTVAKEEQISFRDCAEVFKSGHTTNGIYTLTFPNSTEEIKAYCDMEAGGGGWTIIQRREDGSVDFQRTWKEYKVGFGNPSGEYWLGNEFVSQLTNQQRYVLKIHLKDWEGNEAYSLYEHFYLSSEELNYRIHLKGLTGTAGKISSISQPGNDFSTKDGDNDKCICKCSQMLTGGWWFDACGPSNLNGMYYPQRQNTNKFNGIKWYYWKGSGYSLKATTMMIRPADF
notes: it may include a signal peptide that is absent from the protein; also called FLAG-tagged Ang2; wild-type Ang2 protein
B2: FLAG-Ang2 protein modified form (Q362A) (ligand)
chain: B1 chain with Q352A
notes: also called Q362A Ang2 protein; Q362A modified form

Assays:
[1] = molecular target: T1, Tie2 proteins (Q02763, R&D systems) (UniProt Q02763 23-745, limits assumed); test: ELISA, Tie2 coated, Ang2 proteins at 5 µg/ml
T1 construct: Bought protein coated on ELISA plates

[2] = molecular target: T2, integrin alpha5beta1 protein (R&D systems) (human, UniProt P08648 42-995; P05556 21-728, limits assumed); test: ELISA, integrin coated at 5 µg/ml, FLAG-Ang2 at 10 µg/ml, anti-FLAG-HRP
T2 construct: Bought recombinant heterodimer coated on the ELISA plate; also called α5β1

[3] = molecular target: T3, integrin alphaVbeta1 protein (R&D systems) (human, UniProt P06756 31-992; P05556 21-728); test: as above
T3 construct: Bought recombinant heterodimer coated on the ELISA plate; also called αVβ1

[4] = molecular target: T4, integrin alphaVbeta3 protein (R&D systems) (human, UniProt P06756 31-992; P05106 27-718); test: as above
T4 construct: Bought recombinant heterodimer coated on the ELISA plate; also called αVβ3; integrin (αVβ3)

[5] = molecular target: integrin on U87MG cells; test: cell-based or functional assay
[6] = molecular target: T4, integrin alphaVbeta3 protein (R&D …); test: ELISA, integrin αVβ3 coated, Ang2 proteins at 5 µg/ml

T1 sequence (Q02763 23-745 limits assumed, one chain of several): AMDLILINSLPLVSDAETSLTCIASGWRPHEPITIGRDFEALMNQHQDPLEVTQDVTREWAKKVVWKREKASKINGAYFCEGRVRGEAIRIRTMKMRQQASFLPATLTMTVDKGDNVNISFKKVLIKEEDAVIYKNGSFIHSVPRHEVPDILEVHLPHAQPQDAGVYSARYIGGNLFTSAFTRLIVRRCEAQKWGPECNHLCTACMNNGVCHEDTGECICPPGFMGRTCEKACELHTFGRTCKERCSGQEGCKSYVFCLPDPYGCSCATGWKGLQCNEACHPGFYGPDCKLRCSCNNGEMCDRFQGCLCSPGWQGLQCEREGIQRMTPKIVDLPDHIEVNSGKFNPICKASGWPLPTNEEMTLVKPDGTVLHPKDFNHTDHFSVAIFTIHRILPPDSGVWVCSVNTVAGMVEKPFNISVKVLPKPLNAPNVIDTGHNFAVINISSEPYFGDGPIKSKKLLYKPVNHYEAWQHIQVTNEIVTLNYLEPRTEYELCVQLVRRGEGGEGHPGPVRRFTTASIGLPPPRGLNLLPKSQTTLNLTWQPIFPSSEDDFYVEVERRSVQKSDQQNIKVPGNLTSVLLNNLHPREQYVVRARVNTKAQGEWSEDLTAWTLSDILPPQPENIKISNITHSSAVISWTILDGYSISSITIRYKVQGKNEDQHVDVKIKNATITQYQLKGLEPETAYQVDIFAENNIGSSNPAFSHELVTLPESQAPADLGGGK
T4 sequence (P06756 31-992 limits assumed, chain 1 of 2): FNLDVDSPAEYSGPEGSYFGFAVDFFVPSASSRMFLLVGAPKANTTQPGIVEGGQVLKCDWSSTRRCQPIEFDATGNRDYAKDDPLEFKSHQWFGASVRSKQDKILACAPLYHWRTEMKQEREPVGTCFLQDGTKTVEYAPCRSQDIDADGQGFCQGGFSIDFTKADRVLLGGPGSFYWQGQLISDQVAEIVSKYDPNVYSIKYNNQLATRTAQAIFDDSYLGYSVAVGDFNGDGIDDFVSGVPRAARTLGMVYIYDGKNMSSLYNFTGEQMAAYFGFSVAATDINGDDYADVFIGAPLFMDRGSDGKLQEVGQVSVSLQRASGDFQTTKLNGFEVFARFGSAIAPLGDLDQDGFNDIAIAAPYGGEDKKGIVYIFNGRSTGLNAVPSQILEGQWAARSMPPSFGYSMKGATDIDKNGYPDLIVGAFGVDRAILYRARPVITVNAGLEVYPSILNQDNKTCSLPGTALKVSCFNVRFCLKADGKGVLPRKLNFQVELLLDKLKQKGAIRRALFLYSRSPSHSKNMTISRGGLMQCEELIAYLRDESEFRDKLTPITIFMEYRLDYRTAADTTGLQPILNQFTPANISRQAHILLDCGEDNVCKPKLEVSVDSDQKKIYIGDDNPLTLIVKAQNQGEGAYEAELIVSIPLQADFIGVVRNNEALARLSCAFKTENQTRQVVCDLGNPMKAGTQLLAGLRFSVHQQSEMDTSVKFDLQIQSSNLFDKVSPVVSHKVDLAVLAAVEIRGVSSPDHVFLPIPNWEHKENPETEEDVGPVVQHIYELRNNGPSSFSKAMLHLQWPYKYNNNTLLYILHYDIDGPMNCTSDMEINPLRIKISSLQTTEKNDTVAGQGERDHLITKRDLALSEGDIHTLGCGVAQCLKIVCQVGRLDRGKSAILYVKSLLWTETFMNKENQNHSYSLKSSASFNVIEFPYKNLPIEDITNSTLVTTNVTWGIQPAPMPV
T4 sequence (P05106 27-718 limits assumed, chain 2 of 2): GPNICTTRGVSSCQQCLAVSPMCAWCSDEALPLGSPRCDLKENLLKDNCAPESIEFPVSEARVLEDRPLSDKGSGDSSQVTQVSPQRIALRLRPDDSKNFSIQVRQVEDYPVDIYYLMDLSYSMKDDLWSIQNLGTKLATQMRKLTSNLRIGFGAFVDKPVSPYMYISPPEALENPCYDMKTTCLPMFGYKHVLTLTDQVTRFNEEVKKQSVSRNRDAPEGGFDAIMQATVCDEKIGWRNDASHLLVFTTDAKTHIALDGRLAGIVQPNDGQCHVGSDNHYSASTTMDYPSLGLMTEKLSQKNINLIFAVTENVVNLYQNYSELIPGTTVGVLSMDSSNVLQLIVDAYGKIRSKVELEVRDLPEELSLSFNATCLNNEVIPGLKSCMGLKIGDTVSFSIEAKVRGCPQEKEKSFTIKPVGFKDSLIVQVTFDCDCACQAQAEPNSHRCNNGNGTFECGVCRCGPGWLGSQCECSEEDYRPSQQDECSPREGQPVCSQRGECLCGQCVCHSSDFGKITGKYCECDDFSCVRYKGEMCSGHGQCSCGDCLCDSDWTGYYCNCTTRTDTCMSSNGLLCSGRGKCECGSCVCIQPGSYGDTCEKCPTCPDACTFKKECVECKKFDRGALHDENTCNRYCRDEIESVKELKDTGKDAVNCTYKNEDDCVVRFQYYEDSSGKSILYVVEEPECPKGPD
T2 sequence (P08648 42-995 limits assumed, chain 1 of 2): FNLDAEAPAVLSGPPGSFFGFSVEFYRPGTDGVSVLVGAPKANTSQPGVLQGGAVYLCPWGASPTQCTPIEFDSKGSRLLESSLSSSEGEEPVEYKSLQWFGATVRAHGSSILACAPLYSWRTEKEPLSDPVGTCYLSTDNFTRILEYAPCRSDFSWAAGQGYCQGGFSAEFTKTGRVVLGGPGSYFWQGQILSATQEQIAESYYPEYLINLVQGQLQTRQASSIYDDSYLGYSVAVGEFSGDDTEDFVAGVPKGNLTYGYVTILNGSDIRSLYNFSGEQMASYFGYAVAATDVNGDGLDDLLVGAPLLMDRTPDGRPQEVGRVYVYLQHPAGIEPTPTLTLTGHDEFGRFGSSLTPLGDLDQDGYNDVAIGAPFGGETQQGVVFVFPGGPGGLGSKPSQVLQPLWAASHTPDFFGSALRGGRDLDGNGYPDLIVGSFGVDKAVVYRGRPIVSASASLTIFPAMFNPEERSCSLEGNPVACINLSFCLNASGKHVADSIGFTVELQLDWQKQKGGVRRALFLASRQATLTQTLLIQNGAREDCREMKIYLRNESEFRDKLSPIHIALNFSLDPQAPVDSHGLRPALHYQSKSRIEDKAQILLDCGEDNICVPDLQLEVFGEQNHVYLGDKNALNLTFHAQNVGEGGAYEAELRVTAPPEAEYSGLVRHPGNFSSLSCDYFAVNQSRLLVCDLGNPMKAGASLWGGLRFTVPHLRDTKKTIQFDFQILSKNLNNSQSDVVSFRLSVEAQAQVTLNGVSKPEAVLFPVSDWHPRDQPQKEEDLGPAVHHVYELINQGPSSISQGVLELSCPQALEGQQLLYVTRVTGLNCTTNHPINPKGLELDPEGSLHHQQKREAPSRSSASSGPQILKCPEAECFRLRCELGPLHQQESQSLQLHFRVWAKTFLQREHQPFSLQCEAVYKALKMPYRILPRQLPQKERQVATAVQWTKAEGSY
T2 sequence (P05556 21-728 limits assumed, chain 2 of 2): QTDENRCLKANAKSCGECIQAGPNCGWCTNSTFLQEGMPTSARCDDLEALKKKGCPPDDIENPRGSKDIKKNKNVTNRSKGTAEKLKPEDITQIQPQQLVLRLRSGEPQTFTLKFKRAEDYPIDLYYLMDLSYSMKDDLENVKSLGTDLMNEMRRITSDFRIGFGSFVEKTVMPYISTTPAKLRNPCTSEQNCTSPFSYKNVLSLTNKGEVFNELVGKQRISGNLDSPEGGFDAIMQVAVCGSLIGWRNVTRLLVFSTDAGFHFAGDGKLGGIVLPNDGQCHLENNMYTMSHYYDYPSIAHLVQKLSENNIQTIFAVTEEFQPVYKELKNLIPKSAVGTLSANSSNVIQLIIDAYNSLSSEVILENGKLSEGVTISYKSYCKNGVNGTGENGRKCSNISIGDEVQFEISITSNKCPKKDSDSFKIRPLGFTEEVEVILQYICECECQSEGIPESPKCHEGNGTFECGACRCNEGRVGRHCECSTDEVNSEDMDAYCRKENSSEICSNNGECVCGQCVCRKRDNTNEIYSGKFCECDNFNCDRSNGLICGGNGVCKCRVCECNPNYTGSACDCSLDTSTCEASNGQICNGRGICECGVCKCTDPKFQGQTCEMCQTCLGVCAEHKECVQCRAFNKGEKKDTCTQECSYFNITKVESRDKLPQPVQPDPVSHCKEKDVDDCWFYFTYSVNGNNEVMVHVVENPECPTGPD
T3 sequence (P06756 31-992 limits assumed, chain 1 of 2): as the sequence (P06756 31-992 limits assumed, chain 1 of 2) above
T3 sequence (P05556 21-728 limits assumed, chain 2 of 2): as the sequence (P05556 21-728 limits assumed, chain 2 of 2) above

| Binder | binding result [1] | decrease in Ang2 dependent cell adhesion of U87MG cells to Ang2-coated plates, peptide at 100 µg/ml [5] [%] | other results |
| --- | --- | --- | --- |
| B1 | binds |  | binding result [2]: binds; binding result [3]: binds; binding result [4]: binds |
| B2 | binds |  | invasion of U87MG cells through matrigel-coated transwell toward 5 µg/ml Ang2 protein, 48 hours (fraction of wild type Ang2) [5]: 0.5; binding level relative to the wild type Ang2 [6]: ≤ 50% |
| HTTNGIYTLTFPNST [Ang2 derived peptide of SEQ ID No. 3] |  | > 50 |  |
| IYTLTFPNSTEEIKA [Ang2 derived peptide of SEQ ID No. 4] |  | > 50 |  |
| EYWLGNEFVSQLTNQ [Ang2 derived peptide of SEQ ID No. 15 (Peptide 15)] |  | > 50 |  |
| LNYRIHLKGLTGTAG [Ang2 derived peptide of SEQ ID No. 24] |  | > 50 |  |
